Experimental data as given in publication PMC10437998, “A previously unrecognized superfamily of macro-conotoxins includes an inhibitor of the sensory neuron calcium channel Cav2.3” (PLOS Biology, 2023).
Values joined by “and” are separate entries in the source; they are usually repeats but may differ in a detail not shown here. Identical values can stand only once.

Columns and labels:
[1] = target: the molecule itself; experiment: SEC; […] (pH 7.8), 150 mM NaCl, 0.5 mL/min; […]
[2] = target: the molecule itself; experiment: […] (pH 7.8), room temperature; 1 mg/mL to 13.2 mg/mL (100 μM to 1.3 mM); […]

B1: Mu8.1 (SLC_Mu8.1), macro-conotoxin from Conus mucronatus (natural protein)
chain: GENSDNLTHCRLFEFRLCLLECMSLTLDHCYARCTTVITQIHGSDTNRFDCTIFKTCYYRCYVLGKTEDHCWKGTATSVTGDVGDLEFC
notes: also called Mu8.1_38; Mu8.1_59
stoichiometry N [1]: 2
stoichiometry N [2]: 4 and 6
